Source: patent publication US20150065561A1 (GEORGIA STATE UNIVERSITY RESEARCH FOUNDATION, published 2015)

Molecular target: T1, CYLD (UniProt Q9NQC7 1-956, limits assumed)
T1 construct: also called deubiquitinase CYLD; cylindromatosis
T1 sequence (looked up): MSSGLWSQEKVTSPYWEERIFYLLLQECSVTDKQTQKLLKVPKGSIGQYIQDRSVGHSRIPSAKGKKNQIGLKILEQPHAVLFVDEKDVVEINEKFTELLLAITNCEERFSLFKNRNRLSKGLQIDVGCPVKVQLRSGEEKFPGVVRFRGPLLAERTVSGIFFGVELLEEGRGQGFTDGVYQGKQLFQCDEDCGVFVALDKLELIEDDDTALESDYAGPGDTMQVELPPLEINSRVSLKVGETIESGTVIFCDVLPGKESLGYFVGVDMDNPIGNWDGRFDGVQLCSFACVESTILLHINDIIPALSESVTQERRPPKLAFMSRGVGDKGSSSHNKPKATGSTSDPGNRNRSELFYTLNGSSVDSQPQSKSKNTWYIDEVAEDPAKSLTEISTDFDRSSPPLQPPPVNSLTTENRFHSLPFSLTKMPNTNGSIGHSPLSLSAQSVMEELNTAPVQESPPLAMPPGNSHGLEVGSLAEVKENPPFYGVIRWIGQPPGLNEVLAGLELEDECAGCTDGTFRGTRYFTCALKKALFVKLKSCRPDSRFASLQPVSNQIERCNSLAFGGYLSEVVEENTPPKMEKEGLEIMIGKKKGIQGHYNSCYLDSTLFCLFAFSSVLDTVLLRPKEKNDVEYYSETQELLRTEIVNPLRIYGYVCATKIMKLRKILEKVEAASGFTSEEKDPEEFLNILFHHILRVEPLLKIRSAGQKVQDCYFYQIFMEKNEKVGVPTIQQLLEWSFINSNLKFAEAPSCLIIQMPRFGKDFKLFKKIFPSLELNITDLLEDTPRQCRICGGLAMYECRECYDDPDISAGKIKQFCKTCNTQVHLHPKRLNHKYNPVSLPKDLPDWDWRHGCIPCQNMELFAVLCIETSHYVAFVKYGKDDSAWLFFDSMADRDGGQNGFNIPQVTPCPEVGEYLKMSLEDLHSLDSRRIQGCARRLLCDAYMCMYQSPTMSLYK
Assay: co-immunoprecipitation
Protocol: Western blot, immunoprecipitation and ubiquitination experiments were performed as follows. Western blots were performed using whole-cell extracts, separated on 8 or 10% SDS-PAGE gels, and transferred to polyvinylidine di& uoride membranes. The membrane was blocked with a solution of PBS containing 0.1% Tween 20 (PBS-T) and 5% BSA. The membrane was then incubated in a 1:2,000 dilution of a primary antibody in 5% BSA-PBS-T. After three washes in PBS-T, the membrane was incubated with 1:5,000 dilution of the corresponding secondary antibody in 3% non-fact skim milk-PBS-T. Respective proteins were visualized by using enhanced chemiluminescence detection reagents, according to the manufacturer's instructions. To conduct immunoprecipitation analysis, cell lysates were incubated with 1 μg of primary antibodies overnight, at 4° C., followed by 2-h incubation with protein A/G-agarose beads (Invitrogen). Immunoprecipitates were then suspended in a sample buffer, separated on 8% SDS-PAGE, transferred to polyvinylidine difluoride membrane, and detected by immunoblot analysis, as described above. […]

binding result: no binding
B1: CHIP (enzyme, UniProt Q9UNE7 1-303, looked up)
chain: MKGKEEKEGGARLGAGGGSPEKSPSAQELKEQGNRLFVGRKYPEAAACYGRAITRNPLVAVYYTNRALCYLKMQQHEQALADCRRALELDGQSVKAHFFLGQCQLEMESYDEAIANLQRAYSLAKEQRLNFGDDIPSALRIAKKKRWNSIEERRIHQESELHSYLSRLIAAERERELEECQRNHEGDEDDSHVRAQQACIEAKHDKYMADMDELFSQVDEKRKKRDIPDYLCGKISFELMREPCITPSGITYDRKDIEEHLQRVGHFDPVTRSPLTQEQLIPNLAMKEVIDAFISENGWVEDY
